This note sets out measurements from US20090324601A1 (published 2009).

Assay [1] addresses T1, PDGFR-alpha on human osteosarcoma MG-63 cells (human, UniProt P16234 24-1089). The experiment in a line: cell-based or functional assay.
Assay [2] has as its target T1, PDGFR-alpha on human osteosarcoma MG-63 …. The experiment in a line: FACS titration on MG-63 cells, 4 C, Cy5 goat anti-human detection.
The target of assay [3] is T2, Recombinant human sPDGFR-alpha (R&D catalog# 322-PR/CF) (human, UniProt P16234 24-528).
T2 construct: extracellular domain; Bought reagent; also called soluble PDGFRa; recombinant soluble PDGFR-alpha extracellular domain
T2 sequence (P16234 24-528): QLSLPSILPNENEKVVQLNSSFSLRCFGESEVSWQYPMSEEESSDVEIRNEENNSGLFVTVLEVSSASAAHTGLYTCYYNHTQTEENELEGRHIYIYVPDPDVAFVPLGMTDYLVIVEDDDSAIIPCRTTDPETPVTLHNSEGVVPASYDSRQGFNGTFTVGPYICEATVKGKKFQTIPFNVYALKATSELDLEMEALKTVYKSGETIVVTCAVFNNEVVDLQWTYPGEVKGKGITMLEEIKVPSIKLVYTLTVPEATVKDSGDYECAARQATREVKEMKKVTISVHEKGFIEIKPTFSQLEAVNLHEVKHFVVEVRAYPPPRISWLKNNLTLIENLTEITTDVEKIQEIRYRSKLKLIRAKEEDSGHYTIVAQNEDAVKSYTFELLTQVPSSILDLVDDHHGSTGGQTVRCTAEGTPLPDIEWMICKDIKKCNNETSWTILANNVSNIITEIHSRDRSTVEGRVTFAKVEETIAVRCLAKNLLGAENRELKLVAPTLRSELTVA
The experiment in a line: soluble PDGFRa binding ELISA, plate coated with recombinant human PDGFR-alpha. On the technique in general: ELISA stands for enzyme-linked immunosorbent assay.

Assay [4] deals with T3, murine PDGFRa on NIH3T3 cells (murine, UniProt P26618 25-1089).
T3 construct: whole, on cells; also called mouse PDGFR-alpha
T3 sequence (P26618 25-1089): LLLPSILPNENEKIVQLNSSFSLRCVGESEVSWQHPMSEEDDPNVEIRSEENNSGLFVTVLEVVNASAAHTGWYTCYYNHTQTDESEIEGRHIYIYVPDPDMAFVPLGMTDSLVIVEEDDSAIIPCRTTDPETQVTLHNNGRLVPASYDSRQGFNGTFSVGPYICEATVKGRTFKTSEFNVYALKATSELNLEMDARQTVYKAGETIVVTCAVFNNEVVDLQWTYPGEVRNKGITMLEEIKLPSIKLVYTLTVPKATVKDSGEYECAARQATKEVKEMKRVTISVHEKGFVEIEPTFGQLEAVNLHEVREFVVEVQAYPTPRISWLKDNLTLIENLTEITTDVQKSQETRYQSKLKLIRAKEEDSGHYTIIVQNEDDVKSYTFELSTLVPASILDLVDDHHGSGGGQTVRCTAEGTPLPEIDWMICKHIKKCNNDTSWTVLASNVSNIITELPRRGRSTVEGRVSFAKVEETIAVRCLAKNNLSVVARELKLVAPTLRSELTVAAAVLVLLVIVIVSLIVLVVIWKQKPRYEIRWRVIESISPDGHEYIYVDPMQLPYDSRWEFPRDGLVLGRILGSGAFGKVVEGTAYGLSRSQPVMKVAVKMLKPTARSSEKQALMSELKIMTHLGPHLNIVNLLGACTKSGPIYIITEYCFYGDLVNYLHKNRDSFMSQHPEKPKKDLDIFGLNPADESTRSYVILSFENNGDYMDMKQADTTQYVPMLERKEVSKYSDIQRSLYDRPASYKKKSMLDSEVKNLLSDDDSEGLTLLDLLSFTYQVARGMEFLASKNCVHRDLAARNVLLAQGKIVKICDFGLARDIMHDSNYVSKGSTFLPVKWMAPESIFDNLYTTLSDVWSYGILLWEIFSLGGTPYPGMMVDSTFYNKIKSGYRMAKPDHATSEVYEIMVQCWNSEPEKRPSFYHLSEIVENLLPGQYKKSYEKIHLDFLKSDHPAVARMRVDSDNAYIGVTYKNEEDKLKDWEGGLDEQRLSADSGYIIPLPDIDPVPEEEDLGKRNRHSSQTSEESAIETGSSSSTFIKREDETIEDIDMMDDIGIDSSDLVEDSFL
The assay can be described thus: FACS on NIH3T3 cells, 10 ug/ml antibody, goat anti-human IgG Cy5.

In assay [5] the target is T2, Recombinant human sPDGFR-alpha (R&D …). The experiment in a line: Biacore T100 SPR, 22 C, mAb immobilised on CM5, sPDGFR-alpha injected, 1:1 fit. On the technique in general: In SPR one partner is held on a chip, and binding of the other changes the refractive index at the surface.
For assay [6], the target named is T1, PDGFR-alpha on human osteosarcoma MG-63 …. The assay can be described thus: cell-based or functional assay. This is another data set of the same source.

T1 sequence (P16234 24-1089): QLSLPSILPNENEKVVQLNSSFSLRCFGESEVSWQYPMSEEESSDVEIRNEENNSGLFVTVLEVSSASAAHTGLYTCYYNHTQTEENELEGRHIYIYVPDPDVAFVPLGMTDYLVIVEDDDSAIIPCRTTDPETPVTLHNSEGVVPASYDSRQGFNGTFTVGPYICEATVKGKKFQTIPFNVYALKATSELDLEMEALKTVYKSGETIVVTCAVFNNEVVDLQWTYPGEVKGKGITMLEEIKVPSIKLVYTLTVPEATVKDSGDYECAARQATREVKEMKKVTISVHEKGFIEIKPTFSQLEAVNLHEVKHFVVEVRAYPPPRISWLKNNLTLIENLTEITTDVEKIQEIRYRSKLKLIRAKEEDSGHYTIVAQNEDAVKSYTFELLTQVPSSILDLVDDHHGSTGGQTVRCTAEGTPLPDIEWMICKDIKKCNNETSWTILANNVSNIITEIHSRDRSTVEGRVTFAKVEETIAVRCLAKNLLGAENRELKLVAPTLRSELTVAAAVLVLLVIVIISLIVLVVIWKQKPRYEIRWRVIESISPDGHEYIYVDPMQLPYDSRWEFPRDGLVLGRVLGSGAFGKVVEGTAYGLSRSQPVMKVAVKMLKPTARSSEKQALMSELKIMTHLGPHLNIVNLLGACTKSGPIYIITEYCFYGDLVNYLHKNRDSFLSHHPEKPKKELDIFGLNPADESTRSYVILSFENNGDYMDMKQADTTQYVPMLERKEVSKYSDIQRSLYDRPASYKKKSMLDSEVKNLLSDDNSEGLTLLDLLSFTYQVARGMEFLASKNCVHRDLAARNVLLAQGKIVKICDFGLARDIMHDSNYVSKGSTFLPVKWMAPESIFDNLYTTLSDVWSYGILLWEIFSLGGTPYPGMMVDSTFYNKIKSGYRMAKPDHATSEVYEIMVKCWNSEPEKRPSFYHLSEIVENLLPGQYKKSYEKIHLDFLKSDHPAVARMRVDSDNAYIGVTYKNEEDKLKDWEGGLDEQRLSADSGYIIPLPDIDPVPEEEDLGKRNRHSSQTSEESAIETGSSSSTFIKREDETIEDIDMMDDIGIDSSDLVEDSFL

B1: 2.175.3 (antibody, V domains shown)
VH: QVHLVESGGGLVKPGGSLRLSCAASGFTFSDYYMHWIRQAPGKGLEWVSYISRSGSLIYYVDSVKGRFTISRDNAKNSLNLQMNSLRAEDTAVYYCARGGPYSGSPFDYWGQGTLVTVSS
VL: DIQMTQSPSSLSASVGDRVTITCRPSQRISRYLNWYQQKPGKAPKFLIYAASSLPSGVPSRFSGSGSGTDFTLTISTLQPEDFATYYCQQSYSTPPWTFGQGTKVEIK
notes: identified by its values; also called mAb 2.175.3
The Kd is the free concentration of one partner at which half of the binding sites on the other are occupied at equilibrium, for simple one-to-one binding. The IC50 is the midpoint of a concentration-inhibition curve. For orientation: koff means a measure of how fast the partners let go of each other. Usually kon stands for a measure of how fast the partners come together. In the case of B1, in assay [1], the “Proliferation Assay: IC50 ng/ml (1-6-06)” value was 67.3 ng/mL, the “Proliferation Assay: IC50 ng/ml (1-23-06)” value stood at 56.1 ng/mL, the “Proliferation Assay: IC50 (1-6-06)” value came to 0.45 nM and the “Proliferation Assay: IC50 (1-23-06)” value stood at 0.37 nM. Further, the “pTyr Assay: % Inhibition @ 2 µg/ml” value in assay [1] stood at 100%. The molecule further had a Kd in assay [2] of 0.328 nM. Moreover, the IC50 in assay [3] worked out at 0.038 µg/mL. For the same molecule, the binding result in assay [4] is reported as “binds”. In assay [5], the equilibrium dissociation constant (Kd) was 0.05 nM, the dissociation rate constant (koff) was found to be 2.59e-05 s⁻¹ and the kon was determined as 516000 M⁻¹ s⁻¹. For the same molecule, the “PTYR Assay IC50” value in assay [6] stood at 0.028 µg/mL.
